Laboratory results reported in paper PMC7034832, “Systematic analysis of the binding behaviour of UHRF1 towards different methyl- and carboxylcytosine modification patterns at CpG dyads”.

Legend:
[1] = target: T1, SRA domain of mouse UHRF1 (Mus musculus, UniProt Q8VDF2 419-628); test: MST; MST: PBS-T (0.05% Tween-20), 50 nM labelled SRA, 20 min, room temperature; EMSA: 20 mM Tris-HCl pH 7.5, 150 mM NaCl, 0.5 mM EDTA, 1 mM DTT, 100 ng/ul BSA, 250 nM of each DNA, 4.69-300 nM protein, 30 min on ice, 6% PAGE 0.5x TBE; melting: 50 mM Tris-HCl pH 7.5, 0.5 mM b-ME, 10 mM EDTA; settings: protein: recombinant, tags: His6, NT-647 (RED-tris-NTA) label in MST
T1 sequence: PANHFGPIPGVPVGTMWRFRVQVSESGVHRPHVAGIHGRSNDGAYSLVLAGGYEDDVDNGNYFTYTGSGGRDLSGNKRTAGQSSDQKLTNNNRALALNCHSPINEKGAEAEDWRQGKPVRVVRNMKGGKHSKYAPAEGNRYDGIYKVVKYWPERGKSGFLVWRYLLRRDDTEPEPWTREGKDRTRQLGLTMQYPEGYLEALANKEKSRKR

GFP-mUHRF1 (Np95) = target: T2, GFP-mUHRF1 (Np95) (Mus musculus, UniProt Q8VDF2 1-782); test: EMSA, two-colour competition; ATTO647N C-C' DNA as competitor; MST: PBS-T (0.05% Tween-20), 50 nM labelled SRA, 20 min, room temperature; EMSA: 20 mM Tris-HCl pH 7.5, 150 mM NaCl, 0.5 mM EDTA, 1 mM DTT, 100 ng/ul BSA, 250 nM of each DNA, 4.69-300 nM protein, 30 min on ice, 6% PAGE 0.5x TBE; melting: 50 mM Tris-HCl pH 7.5, 0.5 mM b-ME, 10 mM EDTA; settings: protein: recombinant; tags: GFP (N-terminal by name); label: ATTO550 (EMSA)
T2 sequence: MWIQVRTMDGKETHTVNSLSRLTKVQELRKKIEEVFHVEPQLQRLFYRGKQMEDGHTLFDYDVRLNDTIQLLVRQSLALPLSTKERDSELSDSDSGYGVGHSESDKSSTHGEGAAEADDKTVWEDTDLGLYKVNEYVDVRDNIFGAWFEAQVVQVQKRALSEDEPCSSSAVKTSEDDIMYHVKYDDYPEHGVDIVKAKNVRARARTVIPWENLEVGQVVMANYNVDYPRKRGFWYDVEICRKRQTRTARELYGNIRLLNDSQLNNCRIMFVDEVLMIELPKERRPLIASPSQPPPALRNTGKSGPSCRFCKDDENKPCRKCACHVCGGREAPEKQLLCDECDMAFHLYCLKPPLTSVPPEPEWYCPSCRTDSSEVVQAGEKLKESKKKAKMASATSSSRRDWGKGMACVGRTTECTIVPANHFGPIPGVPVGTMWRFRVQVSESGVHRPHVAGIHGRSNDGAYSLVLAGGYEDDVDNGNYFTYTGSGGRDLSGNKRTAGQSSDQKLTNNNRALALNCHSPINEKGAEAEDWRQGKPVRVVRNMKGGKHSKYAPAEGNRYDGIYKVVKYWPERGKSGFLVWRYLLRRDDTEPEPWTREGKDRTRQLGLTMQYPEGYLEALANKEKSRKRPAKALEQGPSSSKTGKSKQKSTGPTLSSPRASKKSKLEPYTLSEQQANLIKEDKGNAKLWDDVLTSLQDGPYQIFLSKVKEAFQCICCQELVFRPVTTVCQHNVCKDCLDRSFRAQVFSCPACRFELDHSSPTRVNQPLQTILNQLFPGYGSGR

mUHRF2-GFP = target: T3, mUHRF2-GFP (Mus musculus, UniProt Q7TMI3 1-803); test: as above; settings: protein: recombinant; tags: GFP (C-terminal by name); label: ATTO550 (EMSA)
T3 sequence: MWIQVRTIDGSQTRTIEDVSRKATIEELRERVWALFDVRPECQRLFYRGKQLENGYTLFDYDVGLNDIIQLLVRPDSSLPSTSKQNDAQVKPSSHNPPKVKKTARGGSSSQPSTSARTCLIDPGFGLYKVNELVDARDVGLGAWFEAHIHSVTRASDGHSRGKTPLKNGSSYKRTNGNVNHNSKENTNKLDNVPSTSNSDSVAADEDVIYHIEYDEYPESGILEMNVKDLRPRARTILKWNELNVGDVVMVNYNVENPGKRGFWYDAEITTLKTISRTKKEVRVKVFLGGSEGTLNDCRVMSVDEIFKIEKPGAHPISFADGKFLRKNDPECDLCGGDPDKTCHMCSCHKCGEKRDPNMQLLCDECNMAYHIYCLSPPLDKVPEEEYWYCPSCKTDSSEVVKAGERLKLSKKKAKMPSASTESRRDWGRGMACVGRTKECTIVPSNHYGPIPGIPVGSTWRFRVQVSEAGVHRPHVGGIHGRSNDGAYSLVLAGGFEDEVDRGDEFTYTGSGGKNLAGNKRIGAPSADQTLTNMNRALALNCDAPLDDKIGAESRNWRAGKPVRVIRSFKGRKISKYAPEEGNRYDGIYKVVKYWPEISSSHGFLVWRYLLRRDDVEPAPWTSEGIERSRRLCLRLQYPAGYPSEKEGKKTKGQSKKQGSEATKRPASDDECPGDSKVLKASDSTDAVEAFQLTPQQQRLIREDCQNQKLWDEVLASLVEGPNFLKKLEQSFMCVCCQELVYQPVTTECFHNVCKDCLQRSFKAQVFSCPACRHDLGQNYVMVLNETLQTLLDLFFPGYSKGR

Binder | Kd ([1]; label: ATTO550 (EMSA)) [nM] | binding signal (GFP-mUHRF1 (Np95)) [fold vs C-C'] | other results
42 bp C-C' (dsDNA, none) DNA 1: GGATGATGACTCTTCTGGTCCGGATGGTAGTTAAGTGTTGAG DNA 2: CTCAACACTTAACTACCATCCGGACCAGAAGAGTCATCATCC |  |  | Kd ([1]; label: ATTO550 or ATTO647N (EMSA)): 1100 ± 150 nM
42 bp mC-C' (dsDNA, 5-methylcytosine at central CpG, one strand) DNA 1: GGATGATGACTCTTCTGGTCCGGATGGTAGTTAAGTGTTGAG DNA 2: CTCAACACTTAACTACCATCCGGACCAGAAGAGTCATCATCC | 750 ± 110 | ~1.5 | 
42 bp mC-caC' (dsDNA, 5-methylcytosine on one strand, 5-carboxylcytosine on the other at central CpG) DNA 1: GGATGATGACTCTTCTGGTCCGGATGGTAGTTAAGTGTTGAG DNA 2: CTCAACACTTAACTACCATCCGGACCAGAAGAGTCATCATCC |  |  | Kd [1]: 390 ± 110 nM
42 bp caC-caC' (dsDNA, 5-carboxylcytosine at central CpG, both strands) DNA 1: GGATGATGACTCTTCTGGTCCGGATGGTAGTTAAGTGTTGAG DNA 2: CTCAACACTTAACTACCATCCGGACCAGAAGAGTCATCATCC | 230 ± 50 | ~2 | binding signal (mUHRF2-GFP): ~2 fold vs C-C'
42 bp caC-C' (dsDNA, 5-carboxylcytosine at central CpG, one strand) DNA 1: GGATGATGACTCTTCTGGTCCGGATGGTAGTTAAGTGTTGAG DNA 2: CTCAACACTTAACTACCATCCGGACCAGAAGAGTCATCATCC | 1100 ± 290 |  | 
